T1: recombinant BCMA protein fused to an FC fragment (SEQ ID NO 151)
T1 construct: also called BCMA-Fc fusion protein
T1 chain: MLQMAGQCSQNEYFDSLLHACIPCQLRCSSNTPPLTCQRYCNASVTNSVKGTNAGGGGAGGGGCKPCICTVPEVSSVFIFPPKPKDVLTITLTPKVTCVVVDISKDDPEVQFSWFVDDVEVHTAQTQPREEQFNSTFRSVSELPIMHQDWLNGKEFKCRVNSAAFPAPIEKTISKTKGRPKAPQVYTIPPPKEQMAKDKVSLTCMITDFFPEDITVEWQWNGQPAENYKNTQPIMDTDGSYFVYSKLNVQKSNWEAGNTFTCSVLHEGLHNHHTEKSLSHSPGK

B1: anti-BCMA CAR of SEQ ID NO 134 (other)
chain: EVQLLESGGGLVQPGGSLRLSCAASGFTFSSYAMNWVRQAPGKGLEWVSAILSSGGSTYYADSVKGRFTISRDNSKNTLYLQMNSLRAEDTAVYYCARYWPMDIWGQGTLVTVSSGGSCPYSNPSLCSGGSEIVLTQSPGTLSLSPGERATLSCRGGQSVSSSYLAWYQQKPGQAPRLLMYDASIRATGIPDRFSGSGSGTDFTLTISRLEPEDFAVYYCQQYQSWPLTFGQGTKVEIKSDPGSGGGGSCPYSNPSLCSGGGGSAPTTTPAPRPPTPAPTIASQPLSLRPEACRPAAGGAVHTRGLDFACDIYIWAPLAGTCGVLLLSLVITLYCRRGRKKLLYIFKQPFMRPVQTTQEEDGCSCRFPEEEEGGCELRVKFSRSADAPAYQQGQNQLYNELNLGRREEYDVLDKRRGRDPEMGGKPRRKNPQEGLYNELQKDKMAEAYSEIGMKGERRRGKGHDGLYQGLSTATKDTYDALHMQALPPRE
notes: Single-chain CAR on primary T cells
B2: anti-BCMA CAR of SEQ ID NO 136 (other)
chain: GGGGSCPYSNPSLCSGGGGSGGGGSEVQLLESGGGLVQPGGSLRLSCAASGFTFSSYAMNWVRQAPGKGLEWVSAILSSGGSTYYADSVKGRFTISRDNSKNTLYLQMNSLRAEDTAVYYCARYWPMDIWGQGTLVTVSSGGGGSGGGGSGGGGSEIVLTQSPGTLSLSPGERATLSCRGGQSVSSSYLAWYQQKPGQAPRLLMYDASIRATGIPDRFSGSGSGTDFTLTISRLEPEDFAVYYCQQYQSWPLTFGQGTKVEIKSDPGSGGGGSCPYSNPSLCSGGGGSAPTTTPAPRPPTPAPTIASQPLSLRPEACRPAAGGAVHTRGLDFACDIYIWAPLAGTCGVLLLSLVITLYCRRGRKKLLYIFKQPFMRPVQTTQEEDGCSCRFPEEEEGGCELRVKFSRSADAPAYQQGQNQLYNELNLGRREEYDVLDKRRGRDPEMGGKPRRKNPQEGLYNELQKDKMAEAYSEIGMKGERRRGKGHDGLYQGLSTATKDTYDALHMQALPPRE
notes: as for B1
B3: anti-BCMA CAR of SEQ ID NO 132 (other)
chain: GGGGSCPYSNPSLCSGGGGSGGGGSEVQLLESGGGLVQPGGSLRLSCAASGFTFSSYAMNWVRQAPGKGLEWVSAILSSGGSTYYADSVKGRFTISRDNSKNTLYLQMNSLRAEDTAVYYCARYWPMDIWGQGTLVTVSSGGSCPYSNPSLCSGGSEIVLTQSPGTLSLSPGERATLSCRGGQSVSSSYLAWYQQKPGQAPRLLMYDASIRATGIPDRFSGSGSGTDFTLTISRLEPEDFAVYYCQQYQSWPLTFGQGTKVEIKSDPTTTPAPRPPTPAPTIASQPLSLRPEACRPAAGGAVHTRGLDFACDIYIWAPLAGTCGVLLLSLVITLYCRRGRKKLLYIFKQPFMRPVQTTQEEDGCSCRFPEEEEGGCELRVKFSRSADAPAYQQGQNQLYNELNLGRREEYDVLDKRRGRDPEMGGKPRRKNPQEGLYNELQKDKMAEAYSEIGMKGERRRGKGHDGLYQGLSTATKDTYDALHMQALPPRE
notes: as for B1
B4: anti-BCMA CAR of SEQ ID NO 137 (other)
chain: GGGGSCPYSNPSLCSGGGGSGGGGSEVQLLESGGGLVQPGGSLRLSCAASGFTFSSYAMNWVRQAPGKGLEWVSAILSSGGSTYYADSVKGRFTISRDNSKNTLYLQMNSLRAEDTAVYYCARYWPMDIWGQGTLVTVSSGGSCPYSNPSLCSGGSEIVLTQSPGTLSLSPGERATLSCRGGQSVSSSYLAWYQQKPGQAPRLLMYDASIRATGIPDRFSGSGSGTDFTLTISRLEPEDFAVYYCQQYQSWPLTFGQGTKVEIKSDPGSGGGGSCPYSNPSLCSGGGGSAPTTTPAPRPPTPAPTIASQPLSLRPEACRPAAGGAVHTRGLDFACDIYIWAPLAGTCGVLLLSLVITLYCRRGRKKLLYIFKQPFMRPVQTTQEEDGCSCRFPEEEEGGCELRVKFSRSADAPAYQQGQNQLYNELNLGRREEYDVLDKRRGRDPEMGGKPRRKNPQEGLYNELQKDKMAEAYSEIGMKGERRRGKGHDGLYQGLSTATKDTYDALHMQALPPRE
notes: as for B1
B5: anti-BCMA CAR of SEQ ID NO 130 (other)
chain: EVQLLESGGGLVQPGGSLRLSCAASGFTFSSYAMNWVRQAPGKGLEWVSAILSSGGSTYYADSVKGRFTISRDNSKNTLYLQMNSLRAEDTAVYYCARYWPMDIWGQGTLVTVSSGGSCPYSNPSLCSGGSEIVLTQSPGTLSLSPGERATLSCRGGQSVSSSYLAWYQQKPGQAPRLLMYDASIRATGIPDRFSGSGSGTDFTLTISRLEPEDFAVYYCQQYQSWPLTFGQGTKVEIKSDPTTTPAPRPPTPAPTIASQPLSLRPEACRPAAGGAVHTRGLDFACDIYIWAPLAGTCGVLLLSLVITLYCRRGRKKLLYIFKQPFMRPVQTTQEEDGCSCRFPEEEEGGCELRVKFSRSADAPAYQQGQNQLYNELNLGRREEYDVLDKRRGRDPEMGGKPRRKNPQEGLYNELQKDKMAEAYSEIGMKGERRRGKGHDGLYQGLSTATKDTYDALHMQALPPRE
notes: as for B1
B6: anti-BCMA CAR of SEQ ID NO 133 (other)
chain: GGGGSCPYSNPSLCSGGGGSGGGGSEVQLLESGGGLVQPGGSLRLSCAASGFTFSSYAMNWVRQAPGKGLEWVSAILSSGGSTYYADSVKGRFTISRDNSKNTLYLQMNSLRAEDTAVYYCARYWPMDIWGQGTLVTVSSGGGGGSCPYSNPSLCSGGGGGSEIVLTQSPGTLSLSPGERATLSCRGGQSVSSSYLAWYQQKPGQAPRLLMYDASIRATGIPDRFSGSGSGTDFTLTISRLEPEDFAVYYCQQYQSWPLTFGQGTKVEIKSDPTTTPAPRPPTPAPTIASQPLSLRPEACRPAAGGAVHTRGLDFACDIYIWAPLAGTCGVLLLSLVITLYCRRGRKKLLYIFKQPFMRPVQTTQEEDGCSCRFPEEEEGGCELRVKFSRSADAPAYQQGQNQLYNELNLGRREEYDVLDKRRGRDPEMGGKPRRKNPQEGLYNELQKDKMAEAYSEIGMKGERRRGKGHDGLYQGLSTATKDTYDALHMQALPPRE
notes: as for B1
B7: anti-BCMA CAR of SEQ ID NO 138 (other)
chain: GGGGSCPYSNPSLCSGGGGSGGGGSEVQLLESGGGLVQPGGSLRLSCAASGFTFSSYAMNWVRQAPGKGLEWVSAILSSGGSTYYADSVKGRFTISRDNSKNTLYLQMNSLRAEDTAVYYCARYWPMDIWGQGTLVTVSSGGGGGSCPYSNPSLCSGGGGGSEIVLTQSPGTLSLSPGERATLSCRGGQSVSSSYLAWYQQKPGQAPRLLMYDASIRATGIPDRFSGSGSGTDFTLTISRLEPEDFAVYYCQQYQSWPLTFGQGTKVEIKSDPGSGGGGSCPYSNPSLCSGGGGSAPTTTPAPRPPTPAPTIASQPLSLRPEACRPAAGGAVHTRGLDFACDIYIWAPLAGTCGVLLLSLVITLYCRRGRKKLLYIFKQPFMRPVQTTQEEDGCSCRFPEEEEGGCELRVKFSRSADAPAYQQGQNQLYNELNLGRREEYDVLDKRRGRDPEMGGKPRRKNPQEGLYNELQKDKMAEAYSEIGMKGERRRGKGHDGLYQGLSTATKDTYDALHMQALPPRE
notes: as for B1
B8: anti-BCMA CAR of SEQ ID NO 135 (other)
chain: EVQLLESGGGLVQPGGSLRLSCAASGFTFSSYAMNWVRQAPGKGLEWVSAILSSGGSTYYADSVKGRFTISRDNSKNTLYLQMNSLRAEDTAVYYCARYWPMDIWGQGTLVTVSSGGGGGSCPYSNPSLCSGGGGGSEIVLTQSPGTLSLSPGERATLSCRGGQSVSSSYLAWYQQKPGQAPRLLMYDASIRATGIPDRFSGSGSGTDFTLTISRLEPEDFAVYYCQQYQSWPLTFGQGTKVEIKSDPGSGGGGSCPYSNPSLCSGGGGSAPTTTPAPRPPTPAPTIASQPLSLRPEACRPAAGGAVHTRGLDFACDIYIWAPLAGTCGVLLLSLVITLYCRRGRKKLLYIFKQPFMRPVQTTQEEDGCSCRFPEEEEGGCELRVKFSRSADAPAYQQGQNQLYNELNLGRREEYDVLDKRRGRDPEMGGKPRRKNPQEGLYNELQKDKMAEAYSEIGMKGERRRGKGHDGLYQGLSTATKDTYDALHMQALPPRE
notes: as for B1
B9: anti-BCMA CAR of SEQ ID NO 131 (other)
chain: EVQLLESGGGLVQPGGSLRLSCAASGFTFSSYAMNWVRQAPGKGLEWVSAILSSGGSTYYADSVKGRFTISRDNSKNTLYLQMNSLRAEDTAVYYCARYWPMDIWGQGTLVTVSSGGGGGSCPYSNPSLCSGGGGGSEIVLTQSPGTLSLSPGERATLSCRGGQSVSSSYLAWYQQKPGQAPRLLMYDASIRATGIPDRFSGSGSGTDFTLTISRLEPEDFAVYYCQQYQSWPLTFGQGTKVEIKSDPTTTPAPRPPTPAPTIASQPLSLRPEACRPAAGGAVHTRGLDFACDIYIWAPLAGTCGVLLLSLVITLYCRRGRKKLLYIFKQPFMRPVQTTQEEDGCSCRFPEEEEGGCELRVKFSRSADAPAYQQGQNQLYNELNLGRREEYDVLDKRRGRDPEMGGKPRRKNPQEGLYNELQKDKMAEAYSEIGMKGERRRGKGHDGLYQGLSTATKDTYDALHMQALPPRE
notes: as for B1

Biological target: T1, recombinant BCMA protein fused to an FC …
Experiment: flow cytometry of CAR T cells, BCMA-Fc and PE labeled anti-FC antibody
Method: The CDC assay consisted in incubating 0.2 10⁶ transfected cells either alone, or in the presence of Rituximab (RTX, ROCHE, 400 ng) and Babby Rabbit Complement (BRC, AbD Serotec, ref#C12CA, 100 μL of the solution diluted according to the manufacturer protocol) for 2 hours at 37° C. in a final volume of 400 μL of Xvivo 10% FBS. At the end of incubation, anti BCMA-CAR T cells were recovered and labeled with recombinant BCMA protein fused to an FC fragment (SEQ ID NO 151) and a PE labeled anti-FC secondary monoclonal antibody (Jackson ImmunoResearch, ref#115-115-164, diluted 1/200). Cells were then recovered in PFA 4% before being analyzed by flow cytometry. The flow cytometry gating strategy was to determine the viability of anti-BCMA CAR positive T cells (PE positive cells) among the singlet found in the total population of cells. This analysis was performed on cells incubated alone and in the presence of RTX and BRC. Results are expressed as the ratio named “Relative frequency of viable cells among BCMA CAR positive T cells (with respect to control experiment)” described below: […]

binding result | Binder
binds | B1
binds | B2
binds | B3
binds | B4
binds | B5
binds | B6
binds | B7
binds | B8
binds | B9
